{
  "source": "paper PMC3737229",
  "about": "“Novel Dicarboxylate Selectivity in an Insect Glutamate Transporter Homolog” (PLoS ONE, 2013)",
  "molecules": {"B1": {"name": "CuqDCT (Culex quinquefasciatus) (protein)", "chain": "MVKFNKEGFLRFVKQNLLILMTIGGVVIGVALGLGLRDVGKDENLWTQRNIMYVNLLGDLFLRVIKAIILPLIVTSLISAVGSLDTNMSKKIGGLAILYYMTTTILAVLEGVALVITVQPGKRSDDKNDLAEAQRTNVTTADTLLDLIRNIFPPNLVQACLQQYQTVLSPPKANPSEQDLDLWDISSRFVDGTNLIGIVAASITFGVALSAVKNDAPVLLHFIQQLSVAVMKVTGWIIWLSPIGVLSLIAAKFLEMEDLAEVFGKLGLYFAVVVSGIVFHGVIVLPAIYFLLTRKNPYTFLLNMGQAIATAFGTSSSSATLPVTLQCLEEKNHIDTRITRFVIPIGTTINMDGTALYEAVAAIFIAQLRGIDLSFGQVLAVAITATAASIGTAAVPQGGLVTLVMVLDSIGLPSEDVSLIIALDWLVNRVRAVVNVLGDCFGAGIVAHYSRKDLENNPLESPKVIQDESSNELNNVTGKVNVS", "notes": "synthetic gene, full length, in-frame C-terminal GFP (EGFP), pCDNA3.1; cRNA expressed in Xenopus laevis oocytes"}},
  "key": {"CuqDCT": {"biological_target": "T1, CuqDCT (Culex quinquefasciatus, UniProt B0W0K5)", "T1 construct": "gene 6031434; synthetic gene, full length, in-frame C-terminal GFP (EGFP), pCDNA3.1; cRNA expressed in Xenopus laevis oocytes", "T1 sequence (B0W0K5 1-483)": "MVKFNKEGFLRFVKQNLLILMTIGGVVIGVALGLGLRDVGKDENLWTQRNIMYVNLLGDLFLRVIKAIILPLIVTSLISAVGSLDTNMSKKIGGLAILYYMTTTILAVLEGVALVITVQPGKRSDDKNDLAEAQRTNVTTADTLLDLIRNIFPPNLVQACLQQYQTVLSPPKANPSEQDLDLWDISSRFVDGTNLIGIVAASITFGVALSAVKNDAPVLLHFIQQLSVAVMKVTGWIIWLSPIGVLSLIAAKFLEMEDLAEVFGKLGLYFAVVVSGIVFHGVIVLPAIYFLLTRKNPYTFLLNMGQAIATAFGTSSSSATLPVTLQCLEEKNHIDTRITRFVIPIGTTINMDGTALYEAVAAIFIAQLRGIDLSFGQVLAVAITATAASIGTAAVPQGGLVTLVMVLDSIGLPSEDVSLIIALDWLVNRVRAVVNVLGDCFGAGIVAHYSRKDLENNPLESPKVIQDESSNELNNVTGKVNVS", "test": "two-electrode voltage clamp, transport currents in oocytes", "type": "cell-based", "conditions": "-60 mV; 96 mM NaCl Ringer, pH 7.5"}, "N[C@@H](CCC(=O)O)C(=O)O": {"system": "T2, N[C@@H](CCC(=O)O)C(=O)O", "T2 construct": "synthetic gene, full length, in-frame C-terminal GFP (EGFP), pCDNA3.1; cRNA expressed in Xenopus laevis oocytes", "test": "two-electrode voltage clamp, transport currents in oocytes", "type": "cell-based, Culex quinquefasciatus", "conditions": "-60 mV, 96 mM NaCl Ringer, pH 7.5"}, "O=C(O)C[C@H](O)C(=O)O": {"system": "T3, O=C(O)C[C@H](O)C(=O)O", "T3 construct": "synthetic gene, full length, in-frame C-terminal GFP (EGFP), pCDNA3.1; cRNA expressed in Xenopus laevis oocytes", "test": "two-electrode voltage clamp, transport currents in oocytes", "type": "cell-based, Culex quinquefasciatus", "conditions": "-60 mV, 96 mM NaCl Ringer, pH 7.5"}, "[1]": {"substrate": "N[C@@H](CCC(=O)O)C(=O)O", "test": "two-electrode voltage clamp, transport currents in oocytes", "type": "cell-based, Culex quinquefasciatus", "conditions": "-60 mV, 96 mM NaCl Ringer, pH 7.5"}, "[2]": {"substrate": "O=C(O)CCC(=O)C(=O)O", "test": "two-electrode voltage clamp, transport currents in oocytes", "type": "cell-based, Culex quinquefasciatus", "conditions": "-60 mV, 96 mM NaCl Ringer, pH 7.5"}, "[3]": {"substrate": "O=C(O)C[C@H](O)C(=O)O", "test": "cells, lysate or membranes", "conditions": "-60 mV, 96 mM NaCl Ringer, pH 7.5"}},
  "data": [
    {"molecule": "O=C(O)CCC(=O)O", "note": "[succinate]", "values": [
      {"measurement": "Km", "setting": "CuqDCT", "result": "50.8 ± 2.3", "unit": "µM"}
    ]},
    {"molecule": "CuqDCT (Culex quinquefasciatus; N428D)", "values": [
      {"measurement": "Km", "setting": "N[C@@H](CCC(=O)O)C(=O)O", "result": "13.8 ± 1.3", "unit": "µM"},
      {"measurement": "Km", "setting": "O=C(O)C[C@H](O)C(=O)O", "result": "8.8 ± 1.5", "unit": "mM"}
    ]},
    {"molecule": "B1", "values": [
      {"measurement": "Km", "setting": "[1]", "result": "1085 ± 96", "unit": "µM"},
      {"measurement": "Km", "setting": "[2]", "result": "20.2 ± 1.2", "unit": "µM"},
      {"measurement": "Km", "setting": "[3]", "result": "10.5 ± 0.5", "unit": "µM"}
    ]}
  ]
}
